Test results published in patent US20070191277.

Experiments:
[1] = molecular target: T1, rPAI-123 (recombinant truncated porcine plasminogen activator inhibitor-1 isoform; RCL deleted, partial deletion of the heparin-binding domain)
T1 chain: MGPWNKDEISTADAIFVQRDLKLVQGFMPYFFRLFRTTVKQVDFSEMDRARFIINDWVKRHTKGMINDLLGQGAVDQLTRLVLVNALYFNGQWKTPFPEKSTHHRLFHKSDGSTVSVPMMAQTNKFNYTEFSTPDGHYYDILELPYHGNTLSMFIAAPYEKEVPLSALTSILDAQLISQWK

[2] = molecular target: T2, rPAI-1Δ23 (recombinant truncated porcine plasminogen activator inhibitor-1 isoform; RCL deleted, heparin-binding domain deleted)
T2 chain: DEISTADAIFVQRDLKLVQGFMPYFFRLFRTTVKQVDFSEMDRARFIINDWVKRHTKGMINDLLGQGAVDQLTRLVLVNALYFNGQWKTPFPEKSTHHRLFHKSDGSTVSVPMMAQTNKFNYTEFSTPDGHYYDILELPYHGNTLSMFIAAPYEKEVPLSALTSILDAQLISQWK

B1: plasminogen (protein)
chain: EPLDDYVNTQGASLFSVTKKQLGAGSIEECAAKCEEDEEFTCRAFQYHSKEQQCVIMAENRKSSIIIRMRDVVLFEKKVYLSECKTGNGKNYRGTMSKTKNGITCQKWSSTSPHRPRFSPATHPSEGLEENYCRNPDNDPQGPWCYTTDPEKRYDYCDILECEEECMHCSGENYDGKISKTMSGLECQAWDSQSPHAHGYIPSKFPNKNLKKNYCRNPDRELRPWCFTTDPNKRWELCDIPRCTTPPPSSGPTYQCLKGTGENYRGNVAVTVSGHTCQHWSAQTPHTHNRTPENFPCKNLDENYCRNPDGKRAPWCHTTNSQVRWEYCKIPSCDSSPVSTEQLAPTAPPELTPVVQDCYHGDGQSYRGTSSTTTTGKKCQSWSSMTPHRHQKTPENYPNAGLTMNYCRNPDADKGPWCFTTDPSVRWEYCNLKKCSGTEASVVAPPPVVLLPDVETPSEEDCMFGNGKGYRGKRATTVTGTPCQDWAAQEPHRHSIFTPETNPRAGLEKNYCRNPDGDVGGPWCYTTNPRKLYDYCDVPQCAAPSFDCGKPQVEPKKCPGRVVGGCVAHPHSWPWQVSLRTRFGMHFCGGTLISPEWVLTAAHCLEKSPRPSSYKVILGAHQEVNLEPHVQEIEVSRLFLEPTRKDIALLKLSSPAVITDKVIPACLPSPNYVVADRTECFITGWGETQGTFGAGLLKEAQLPVIENKVCNRYEFLNGRVQSTELCAGHLAGGTDSCQGDSGGPLVCFEKDKYILQGVTSWGLGCARPNKPGVYVRVSRFVTWIEGVMRNN
B1 was tested, and the “plasminogen cleavage (immunoblot probed for mini-plasminogen)” value [1] was “the rPAI-123 recombinant protein cleaves plasminogen” and the “plasminogen cleavage (immunoblot probed for mini-plasminogen)” value [2] was “the rPAI-1Δ23 protein did not cleave plasminogen, even when increasing concentrations of the recombinant protein were added”.
